From patent US20070276130A1 (CHILDREN S MEDICAL CENTER, published 2007)
Substitutions are numbered along the chain they refer to. Ends that are not written are not given here.

Legend:
[1] = molecular target: VP5CT of rhesus rotavirus (RRV) VP4 (rhesus rotavirus (RRV)) (UniProt P12473); assay: X-ray crystal structure
[2] = molecular target: T1, DS-1 VP8* core with residues 60-64 mutated to SGSGG (human rotavirus strain DS-1, UniProt P11196 65-223 (Rotavirus A entry)); assay: two-dimensional 15N-1H HSQC NMR; no change in the chemical shifts of the 15N valines of the peptide
T1 construct: That conversion is mine; also called modified DS-1 VP8* core; unlabeled VP8* core
T1 chain: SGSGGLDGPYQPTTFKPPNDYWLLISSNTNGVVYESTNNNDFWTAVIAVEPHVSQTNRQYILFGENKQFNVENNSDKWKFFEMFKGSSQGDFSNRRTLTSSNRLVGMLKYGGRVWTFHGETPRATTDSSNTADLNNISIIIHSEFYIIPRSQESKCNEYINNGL
Excerpt: We used nuclear magnetic resonance (NMR) spectroscopy to assay the binding in solution of a peptide based on the leader to the potential peptide binding cleft. […] To avoid competition between the peptide and residues of the authentic N-terminal leader of the unlabeled VP8* core, residues 60-64 of the core were mutated to SGSGG using PCR.

[3] = molecular target: the molecule itself; assay: X-ray crystal structure (crystal packing)
[4] = molecular target: the molecule itself; assay: X-ray crystal structure

VP5CT of rhesus rotavirus (RRV) VP4 (from UniProt P12473 248-525)
share of the surface area of each subunit buried by trimer contacts [1]: 25.8% | surface area of each subunit buried by trimer contacts [1]: 3960 Å2

B1: peptide TVEPVS (DS-1 VP4 residues 60-64 plus a C-terminal serine) (peptide)
peptide: TVEPVS
modifications: also: 15N-labelled on valine, position not given here
notes: also called leader peptide; assayed peptide
binding result [2]: no binding

B2: DS-1 VP8* core (residues 60-223 of DS-1 VP4) (other)
chain: T1 chain with S1T, G2V, S3E, G4P, G5V
notes: There are eight molecules in the asymmetric unit of the P1 crystal
binding result [3]: binds

B3: RRV VP5* antigen domain (residues 247-479 of rhesus rotavirus VP4) (other)
chain: RAQANEDIVVSKTSLWKEMQYNRDITIRFKFASSIVKSGGLGYKWSEISFKPANYQYTYTRDGEEVTAHTTCSVNGMNDFNFNGGSLPTDFVISRYEVIKENSYVYVDYWDDSQAFRNMVYVRSLAANLNSVICTGGDYSFALPVGQWPVMTGGAVSLHSAGVTLSTQFTDFVSLNSLRFRFRLTVEEPSFSITRTRVSRLYGLPAANPNNGKEYYEVAGRFSLISLVPSNDD
notes: Expressed in Sf-9 cells from a baculovirus with an N-terminal histidine tag and a thrombin site; It crystallised both as a trimer and as a dimer, so copies is left open; also called VP5Ag; VP5* antigen (R247-D479)
binding result [4]: binds
